Laboratory results published in patent US20120121587A1 (Chugai, published 2012).
Like-named read-outs stand apart in the source and are kept apart here. Values belong to the binder of their own block, whether it stands above or below them.

Key:
Assay in all cases: SPR (Biacore T100): antibody captured on Protein A, GST-FND1 as analyte
[1] = molecular target: T1, Human recombinant AXL-FND1 (GST-FND1), from pET-41b(+) (human, UniProt P30530 225-331)
T1 construct: Expressed in E. coli, purified on Glutathione Sepharose; analyte in all Biacore measurements; GST put first by the usual layout of pET-41; not shown: GST-tag of vector pET-41b(+) (Novagen)
T1 sequence (looked up): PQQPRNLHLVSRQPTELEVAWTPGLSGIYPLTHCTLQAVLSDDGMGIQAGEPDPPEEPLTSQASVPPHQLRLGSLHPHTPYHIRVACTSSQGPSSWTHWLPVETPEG
Procedure: (§1) Kinetic analyses of antigen-antibody reactions of humanized AXL antibodies were carried out using Biacore T100 (BIACORE). rec-Protein A (Zymed) (hereinafter, Protein A) was immobilized onto a sensor chip, various antibodies were bound to it, then an antigen as the analyte was flushed to measure the antibody-antigen interaction. Human recombinant AXL-FND1 (prepared in 2-2; hereinafter referred to as GST-FND1) prepared at various concentrations was used as the antigen. From the sensorgrams obtained through the measurements, kinetic parameters, namely binding rate constant kₐ (1/Ms) and dissociation rate constant kd (1/s), were calculated, and Kd (M) was calculated based on these values. Biacore T100 Evaluation Software (BIACORE) was used to calculate each of the parameters.
The sensor chips were produced by immobilizing approximately 3000 RU of Protein A onto CM5 (BIACORE) by amine coupling. Using the produced sensor chip, kinetic analyses were carried out on the interaction between the Protein A-bound antibodies and GST-FND1. HBS-EP+ was used as the running buffer, and the flow rate was set to 30 μL/min. Each antibody was prepared at 1 μg/mL using the running buffer, and was subjected to binding with Protein A for two minutes. GST-FND1 as the analyte was prepared at 0.5 and 2.0 μg/mL using HBS-EP+. […]

[2] = molecular target: T1, Human recombinant AXL-FND1 (GST-FND1), …; remark: listed apart in the source
Method in brief: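 Antibodies (1 μg/mL) were captured for 2 min on a Protein A CM5 chip. GST-FND1 (0.5 and 2.0 μg/mL) in HBS-EP+ was flowed at 30 μL/min with 2 min association and 2 min dissociation at 25° C. ka and kd were fitted from sensorgrams and Kd was calculated from them.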

[3] = molecular target: T1, Human recombinant AXL-FND1 (GST-FND1), …; remark: listed apart in the source
Procedure: as §1
The sensor chips were produced by immobilizing approximately 3000 RU of Protein A onto CM5 (BIACORE) by amine coupling. Using the produced sensor chip, kinetic analyses were carried out on the interaction between the Protein A-bound antibodies and GST-FND1. HBS-EP+ was used as the running buffer, and the flow rate was set to 30 μL/min. Each antibody was prepared at 1 μg/mL using the running buffer, and was subjected to binding with Protein A for two minutes. GST-FND1 as the analyte was prepared at 0.5 and 2.0 μg/mL using HBS-EP+. Measurements were carried out by first binding the various humanized AXL antibodies, chimeric AXL antibodies, or mouse AXL antibodies of interest to Protein A, then applying an analyte solution to them for a two-minute interaction, and then switching to HBS-EP+ (BIACORE) for a two-minute measurement of the dissociation phase. After completion of measurement of the dissociation phase, 30 μL of 10 mM glycine-HCl (pH 2.0) was used for washing to regenerate the sensor chip. Such binding, dissociation, and regeneration were defined as one cycle of analysis. All experiments were performed at 25° C.
Affinity measurements on the produced variants were carried out by the method of Example 2.

Kd [1]: 4.44 nM
B1: H0/L0 (antibody, human IgG1, kappa, V domains shown)
VH: QVTLKESGPVLVKPTETLTLTCTVSGFSLSSFGVDWVRQAPGKGLEWMGVIWGGGSTNYNSALKSRLTISKDTSKSQVVLTMTNMDPVDTATYYCAGEGSKYGAWFAYWGQGTLVTVSS
VL: DVVMTQSPLSLPVTLGQPASISCRSSQNIVHTNGNTYLEWYQQKPGKAPELLIYKVSNRFSGVPDRFSGSGSGTDFTLKISRVEAEDVGVYYCFQGSHIPFTFGQGTKLEIKR
notes: Humanized Ax225; IgG1 constant region without G446 and K447 (EU), natural human kappa

Kd [1]: 3.58 nM
Kd [2]: 3.58 nM
Kd [3]: 3.58 nM
B2: H9/L0 (antibody, human IgG1, kappa)
heavy: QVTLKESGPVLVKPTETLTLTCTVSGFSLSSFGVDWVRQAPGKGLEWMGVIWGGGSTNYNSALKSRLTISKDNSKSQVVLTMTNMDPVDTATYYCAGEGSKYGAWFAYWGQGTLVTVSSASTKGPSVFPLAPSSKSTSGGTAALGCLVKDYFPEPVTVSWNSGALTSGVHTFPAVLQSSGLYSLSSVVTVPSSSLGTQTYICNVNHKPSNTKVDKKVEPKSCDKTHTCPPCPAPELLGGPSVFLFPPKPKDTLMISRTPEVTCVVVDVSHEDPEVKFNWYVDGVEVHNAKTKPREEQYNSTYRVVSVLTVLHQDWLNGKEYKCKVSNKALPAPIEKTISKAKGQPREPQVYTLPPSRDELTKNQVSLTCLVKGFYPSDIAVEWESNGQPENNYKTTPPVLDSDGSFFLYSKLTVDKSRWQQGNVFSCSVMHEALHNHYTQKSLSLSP
light: DVVMTQSPLSLPVTLGQPASISCRSSQNIVHTNGNTYLEWYQQKPGKAPELLIYKVSNRFSGVPDRFSGSGSGTDFTLKISRVEAEDVGVYYCFQGSHIPFTFGQGTKLEIKRTVAAPSVFIFPPSDEQLKSGTASVVCLLNNFYPREAKVQWKVDNALQSGNSQESVTEQDSKDSTYSLSSTLTLSKADYEKHKVYACEVTHQGLSSPVTKSFNRGEC
notes: also called humanized Ax225 antibody (H9/L0)
